Laboratory results taken from patent US20180362628A1 (KYMAB, published 2018).
Positions count from the first letter of the chain named. Where two headings read alike, the source gives them in different places. No end group written: not given here. *: point of attachment. Biotin = O=C1N[C@H]2[C@H](CS[C@H]2CCCCC(=O)*)N1

Columns and labels:
[1] = target: T1, Recombinant CSP (Wellcome Trust Sanger Institute, FIG. 22), CSP ectodomain with BirA biotinylation tag, … (Plasmodium falciparum strain 3D7, UniProt Q7K740 19-376, biotinylated at the BirA substrate peptide); test: SPR, IgG1 captured, CSP as analyte, 40 C; apparent affinity (avidity)
T1 construct: extracellular domain; Expressed in HEK293, 45 kDa; order of the tags is that of the legend, not confirmed; also called biotinylated recombinant CSP

[2] = target: T2, Peptide #8 (Biotin-SGSGDGAPDPNANPNV); test: BLI, biotin-peptide on streptavidin sensor, IgG1 in solution, 25 C;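 on Response (nm): antibody solution at 30 µg/mL during association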
T2 construct: alanine scan variant; also called Peptide #8 44292
T2 peptide: Biotin-SGSGDGAPDPNANPNV

[3] = target: T3, Peptide #3 (Biotin-SGSGHKKLKQPGDGNPDPNANPN) (N-terminal biotin); test: as above
T3 construct: also called Peptide #3 44288
T3 peptide: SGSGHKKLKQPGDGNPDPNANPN

[4] = target: T4, Peptide #9 (Biotin-SGSGDGNADPNANPNV); test: as above
T4 construct: alanine scan variant; also called Peptide #9 44293
T4 peptide: Biotin-SGSGDGNADPNANPNV

[5] = target: T5, Peptide #1 (Biotin-SGSGKPKHKKLKQPGDGNPDPNANP) (N-terminal biotin); test: as above
T5 construct: also called Peptide #1 44286
T5 peptide: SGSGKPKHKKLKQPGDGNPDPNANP

[6] = target: T6, Peptide #15 (Biotin-SGSGDGNPDPNANANV); test: as above
T6 construct: alanine scan variant; also called Peptide #15 44299
T6 peptide: Biotin-SGSGDGNPDPNANANV

[7] = target: T7, Peptide #4 (Biotin-SGSGNPDPNANP); test: as above
T7 construct: also called Peptide #4 44285
T7 peptide: Biotin-SGSGNPDPNANP

[8] = target: T8, Peptide #7 (Biotin-SGSGDANPDPNANPNV); test: as above
T8 construct: alanine scan variant; also called Peptide #7 44291
T8 peptide: Biotin-SGSGDANPDPNANPNV

[9] = target: T9, Peptide #11 (Biotin-SGSGDGNPDANANPNV); test: as above
T9 construct: alanine scan variant; also called Peptide #11 44295
T9 peptide: Biotin-SGSGDGNPDANANPNV

[10] = target: T10, Peptide #12 (Biotin-SGSGDGNPDPAANPNV); test: as above
T10 construct: alanine scan variant; also called Peptide #12 44296
T10 peptide: Biotin-SGSGDGNPDPAANPNV

[11] = target: T11, Peptide #6 (Biotin-SGSGAGNPDPNANPNV); test: as above
T11 construct: alanine scan variant; also called Peptide #6 44290
T11 peptide: Biotin-SGSGAGNPDPNANPNV

[12] = target: T12, Peptide #17 (Biotin-SGSGDGNPDPNANPNA); test: as above
T12 construct: alanine scan variant; also called Peptide #17 44301
T12 peptide: Biotin-SGSGDGNPDPNANPNA

[13] = target: T13, Peptide #16 (Biotin-SGSGDGNPDPNANPAV); test: as above
T13 construct: alanine scan variant; also called Peptide #16 44300
T13 peptide: Biotin-SGSGDGNPDPNANPAV

[14] = target: T14, Peptide #5 (Biotin-SGSGDGNPDPNANPNV), original sequence of the alanine scan; test: as above
T14 construct: also called Peptide #5 44289
T14 peptide: Biotin-SGSGDGNPDPNANPNV

[15] = target: T15, Peptide #14 (Biotin-SGSGDGNPDPNAAPNV); test: as above
T15 construct: alanine scan variant; also called Peptide #14 44298
T15 peptide: Biotin-SGSGDGNPDPNAAPNV

[16] = target: T16, Peptide #10 (Biotin-SGSGDGNPAPNANPNV); test: as above
T16 construct: alanine scan variant; also called Peptide #10 44294
T16 peptide: Biotin-SGSGDGNPAPNANPNV

[17] = target: T2, Peptide #8 (Biotin-SGSGDGAPDPNANPNV); test: as above
[18] = target: T3, Peptide #3 …; test: as above
[19] = target: T4, Peptide #9 (Biotin-SGSGDGNADPNANPNV); test: as above
[20] = target: T5, Peptide #1 …; test: as above
[21] = target: T6, Peptide #15 (Biotin-SGSGDGNPDPNANANV); test: as above
[22] = target: T7, Peptide #4 (Biotin-SGSGNPDPNANP); test: as above
[23] = target: T8, Peptide #7 (Biotin-SGSGDANPDPNANPNV); test: as above
[24] = target: T9, Peptide #11 (Biotin-SGSGDGNPDANANPNV); test: as above
[25] = target: T10, Peptide #12 (Biotin-SGSGDGNPDPAANPNV); test: as above
[26] = target: T11, Peptide #6 (Biotin-SGSGAGNPDPNANPNV); test: as above
[27] = target: T12, Peptide #17 (Biotin-SGSGDGNPDPNANPNA); test: as above
[28] = target: T13, Peptide #16 (Biotin-SGSGDGNPDPNANPAV); test: as above
[29] = target: T14, Peptide #5 (Biotin-SGSGDGNPDPNANPNV), …; test: as above
[30] = target: T15, Peptide #14 (Biotin-SGSGDGNPDPNAAPNV); test: as above
[31] = target: T16, Peptide #10 (Biotin-SGSGDGNPAPNANPNV); test: as above
[32] = target: T17, full CSP protein (analyte of Example 12) (Plasmodium falciparum (isolate 3D7), UniProt Q7K740 19-374); test: SPR, IgG1 from supernatant on anti-human IgG surface, CSP as analyte, 25 C, 1:1 fit
T17 construct: not shown: C-terminal tags

B1: Antibody 669, human IgG1 (antibody, V domains shown)
VH: QVQLVQSGAEVKKPGASVRVSCKASGFTFTSYAMHWVRQAPGQRLEWMGWINAGNGHTKYSQKFQDRVAITRDTSATTVYMDLSSLRSEDTAVYYCTRDGFCTSTTCSDHYGMDVWGQGTTVTVSS
VL: QSALTQPASVSGSPGQSITISCTGTSSDVGSYNYVSWYQQHPGKAPKFMIYDVSKRPSGVSNRFSGSKSGNTASLTISGLQAEDEADYYCCSYAGSSTWVFGGGTKLTVL
notes: human IgG1; HEK (Expi293F) product; also called AB-000669; Ab669
Kd [1]: 0.47 nM
koff [1]: 0.000125 s⁻¹
kon [1]: 265000 M⁻¹ s⁻¹
Response (nm) [2]: 3.79 nm
Response (nm) [3]: 5.06 nm
Response (nm) [4]: 3.68 nm
Response (nm) [5]: 5.83 nm
Response (nm) [6]: 2.82 nm
Response (nm) [7]: 5.27 nm
Response (nm) [8]: 3.86 nm
Response (nm) [9]: 2.18 nm
Response (nm) [10]: 2.81 nm
Response (nm) [11]: 3.82 nm
Response (nm) [12]: 3.85 nm
Response (nm) [13]: 3.66 nm
Response (nm) [14]: 3.76 nm
Response (nm) [15]: 0.0239 nm
binding result [15]: no binding (tested: LOD 0.125 nm)
Response (nm) [16]: 4.48 nm

B2: Antibody 666, human IgG1 (antibody, V domains shown)
VH: QVQLVQSGAEVKKPGASVKVSCKASGYTFTNYAMHWVRQAPGQRLEWMGWINAGNGNTKYSQNFQGRVTITRDTSASTAYMELSSLRSEDTAVYYCARDEYYASGSYYDYYYYGMDVWGQGTTVTVTS
VL: B1 VL with S31V, Y38F, F48L, D52N, K106N
notes: human IgG1; also called Ab666
Response (nm) [17]: 2.23 nm
Response (nm) [18]: 6.53 nm
Response (nm) [19]: 1.75 nm
Response (nm) [20]: 9.06 nm
Response (nm) [21]: 0.862 nm
Response (nm) [22]: 7.06 nm
Response (nm) [23]: 2.99 nm
Response (nm) [24]: 0.982 nm
Response (nm) [25]: 0.0943 nm
Response (nm) [26]: 3.14 nm
Response (nm) [27]: 2.95 nm
Response (nm) [28]: 2.7 nm
Response (nm) [29]: 2.4 nm
Response (nm) [30]: 0.0116 nm
binding result [30]: no binding (tested: LOD 0.020 nm)
Response (nm) [31]: 5.18 nm
kon [32]: 1e+08 M⁻¹ s⁻¹
Kd [1]: 0.18 nM
koff [1]: 1.7e-05 s⁻¹
kon [1]: 97000 M⁻¹ s⁻¹
